According to patent US20190100594A1 (INHIBRX, published 2019):
Numbering of substitutions follows the chain as printed. Like-named read-outs stand apart in the source and are kept apart here. Blank lines part the entries; values can stand above or below the binder they belong to.

Legend:
[1] = molecular target: T1, GITR expressed on CHO cells (Homo sapiens (Human), UniProt Q9Y5U5 26-241); assay: flow cytometry on GITR-expressing CHO cells, MFI-FL4
T1 construct: also called glucocorticoid-induced TNFR-related protein; TNFRSF18
T1 sequence: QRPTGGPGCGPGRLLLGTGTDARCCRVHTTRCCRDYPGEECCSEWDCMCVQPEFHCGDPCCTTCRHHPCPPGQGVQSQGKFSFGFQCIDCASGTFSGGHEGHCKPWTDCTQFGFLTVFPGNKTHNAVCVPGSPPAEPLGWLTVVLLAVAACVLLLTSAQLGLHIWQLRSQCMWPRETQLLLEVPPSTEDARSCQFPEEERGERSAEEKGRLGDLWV

[2] = molecular target: T1, GITR expressed on CHO cells; assay: flow cytometry competition on GITR-expressing CHO cells; blocked ligand recombinant GITRL; readout GITRL bound, MFI-FL1
Text: Briefly, in these studies, a flow cytometry assay using GITR expressing CHO cells and recombinant GITRL was used to implement to assess blocking capacity. The GITR antibody, TRX-518, was used as a control for these studies.

[3] = molecular target: T1, GITR expressed on CHO cells; assay: flow cytometry on GITR-expressing CHO cells, MFI-FL4; remark: listed apart in the source
cyno GITR-CHO = molecular target: T2, cyno GITR-CHO (cynomolgus monkey); assay: flow cytometry on cyno GITR-CHO cells
T2 construct: expressed on the surface of CHO cells, construct not described; also called cynomolgus GITR expressed on the surface of CHO cells

human GITR-CHO = molecular target: T3, human GITR-CHO (human, UniProt Q9Y5U5); assay: flow cytometry on human GITR-CHO cells
T3 construct: expressed on the surface of CHO cells, construct not described; also called human GITR expressed on the surface of CHO cells
T3 sequence (looked up): T1 sequence

B2: H11 (VHH, not shown: a dimerising Fc or GST)
VHH: QVQLVQSGGGLVQPGGSLRLSCAASGSVFSIDSMSWFRQAPGNERELVALITGGRTTTYADSVKGRFTISRASAPNTVHLQMNSLKPEDTAVYYCNAVVSTGWGRNADDYWGQGTQVTVS
EC50 (read off the curve) [1]: 2 to 3 nM
IC50 (read off the curve) [2]: 2 to 3 nM

B3: B5 (VHH, not shown: a dimerising Fc or GST)
VHH: B2 VHH with G16E, A40G, S73N, K86E, V98A
EC50 (read off the curve) [1]: 2 to 3 nM
IC50 (read off the curve) [2]: 2 to 3 nM

B4: B7 (VHH, not shown: a dimerising Fc or GST)
VHH: B2 VHH with V5Q, Q6E, A40T, L50H, S84N, V98A
EC50 (read off the curve) [1]: ~3 nM
IC50 (read off the curve) [2]: ~3 nM

B5: B3 (VHH, not shown: a dimerising Fc or GST)
VHH: B2 VHH with S21I, A40R, A60S, P75L, V98A, V99L, N106D, D108S, D109A
EC50 (read off the curve) [3]: ~2 nM
IC50 (read off the curve) [2]: ~3 nM

B6: B2 (VHH, not shown: a dimerising Fc or GST; small tags and cut ends)
VHH: B2 VHH with V5Q, Q6E, R55H, A60G, K86Q, V98A
EC50 (read off the curve) [3]: ~0.7 nM
IC50 (read off the curve) [2]: ~1 nM

B7: C4 (VHH, not shown: a dimerising Fc or GST)
VHH: B2 VHH with G16E, A40G, S73N, V98A, N106S
EC50 (read off the curve) [1]: 2 to 3 nM
IC50 (read off the curve) [2]: 2 to 3 nM

B8: E2 (VHH, not shown: a dimerising Fc or GST; small tags and cut ends)
VHH: B2 VHH with V5Q, Q6E, H79Y
EC50 (read off the curve) [3]: ~1 nM
IC50 (read off the curve) [2]: ~2 nM

B13: F2 (VHH, not shown: a dimerising Fc or GST; small tags and cut ends)
VHH: QLVQSGGGLVQPGESLRLSCAASGSVFSIDSVSWFRQGPGNERELVALITGGRTTTYADSVKGRFTISRANAPNTVHLRMNSLKPEDTAVYYCNAAVSTGWGRNADDYWGQGTQVTVS
EC50 (read off the curve) [3]: ~1 nM
IC50 (read off the curve) [2]: ~1 nM

More lines, now with the values ahead:

EC50 (read off the curve) [1]: ~4 nM
IC50 (read off the curve) [2]: ~6 nM
B1: B12 (VHH, not shown: a dimerising Fc or GST)
VHH: QVQLQQSGGGLVQAGGSLRLSCAASGSIFSIDAMGWYRLAPGKQRELVAVIDGVSPNYADSVKGRFTISSDIAKNTVYLQMHSPKPEDTAVYYCNADVSTGWGRPADHYWGQGTQVTVS

EC50 (read off the curve) (cyno GITR-CHO): ~2 nM
EC50 (read off the curve) (human GITR-CHO): 1 to 2 nM
B9: hzC06v3.7 (VHH)
VHH: EVQLLESGGGEVQPGGSLRLSCAASGSVFSIDAMGWYRQAPGKQRELVAVLSGISSAKYAASAPGRFTISRDAVKNTVYLQMSSLRAEDTAVYYCYADVSTGWGRDAHGYWGQGTLVTV

EC50 (read off the curve) (cyno GITR-CHO): ~2 nM
EC50 (read off the curve) (human GITR-CHO): 1 to 2 nM
B10: hzC06v3.9 (VHH)
VHH: B9 VHH with A73N, V74A

EC50 (read off the curve) (cyno GITR-CHO): ~2 nM
EC50 (read off the curve) (human GITR-CHO): 1 to 2 nM
B11: hzC06v3.10 (VHH)
VHH: B9 VHH with A61D, S62A, A63V, P64K, D72A, A73S, V74A, K75P

EC50 (read off the curve) (cyno GITR-CHO): ~2 nM
EC50 (read off the curve) (human GITR-CHO): 1 to 2 nM
B12: hzC06v3.12 (VHH)
VHH: B9 VHH with D72A, A73S, V74A, K75P

EC50 (read off the curve) [1]: ~2 nM
IC50 (read off the curve) [2]: 2 to 3 nM
B14: C7 (VHH, not shown: a dimerising Fc or GST)
VHH: QVQLQESGGGLVQAGGSLRLSCTASGSIFSIDDMGWYRLAPGKQRELVAVHSGSSTNYGDSVKGRFTISGDSAKNTVYLQMHRLEPEDTAVYYCYAAISSGWGRDAEDYWGQGTQVTVS
